# T1: NaPi2b expressed on IGROV-1 cells (Homo sapiens, UniProt O95436)
# T1 construct: IGROV-1 cells express endogenous NaPi2b at a high level; endogenous in cells; host or cells: IGROV-1
# T1 sequence (O95436 1-690): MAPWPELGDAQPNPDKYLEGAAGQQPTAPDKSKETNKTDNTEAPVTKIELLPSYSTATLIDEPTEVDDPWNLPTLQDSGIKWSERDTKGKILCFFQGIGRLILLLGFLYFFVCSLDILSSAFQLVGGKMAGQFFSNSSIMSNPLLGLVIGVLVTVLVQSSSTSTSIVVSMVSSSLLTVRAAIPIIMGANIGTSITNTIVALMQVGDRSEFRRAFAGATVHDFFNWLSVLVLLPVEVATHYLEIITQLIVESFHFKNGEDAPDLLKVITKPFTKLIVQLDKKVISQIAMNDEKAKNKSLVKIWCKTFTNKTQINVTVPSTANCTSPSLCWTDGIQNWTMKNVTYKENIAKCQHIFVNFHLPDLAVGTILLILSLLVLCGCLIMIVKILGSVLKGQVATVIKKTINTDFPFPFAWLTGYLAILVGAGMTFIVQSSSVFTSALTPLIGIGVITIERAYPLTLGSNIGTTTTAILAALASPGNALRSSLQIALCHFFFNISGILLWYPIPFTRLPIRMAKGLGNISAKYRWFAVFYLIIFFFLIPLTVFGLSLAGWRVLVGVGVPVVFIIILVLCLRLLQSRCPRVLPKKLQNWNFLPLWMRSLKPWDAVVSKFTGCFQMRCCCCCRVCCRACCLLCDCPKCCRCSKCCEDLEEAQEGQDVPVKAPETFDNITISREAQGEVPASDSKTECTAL
# Columns and labels:
# [1] = biological target: T1, NaPi2b expressed on IGROV-1 cells; assay: Cellular binding of bivalent antibodies to IGROV-1 cells by flow cytometry (Example 13); settings: IGROV-1, 24 hours at 4° C.; NB = no cellular binding
# Protocol: IGROV-1 cells express endogenous NaPi2b at a high level.
# Briefly, cells were seeded at 50,000 cells/well in conical-bottom 96-well plates and treated with test antibody for 24 hours at 4° C. to prevent internalization. Palivizumab (anti-RSV antibody, v22277) was included as a negative control. […] Following incubation, cells were washed and stained with anti-Human IgG Fc AF647 conjugate (Jackson Immuno Research Labs, West Grove, PA; Cat. No. 109-605-098) at 4° C. for 30 min. Following incubation and washing, fluorescence was detected by flow cytometry on a BD LSRFortessa™ Cell Analyzer (BD Biosciences, Franklin Lake, NJ) with 1,000 minimum events collected per well. The AF647/APC-A GeoMean (fluorescence signal geometric mean, proportional to anti-Human AF647 binding) was calculated for the live cell population using FlowJo™ Version 10.8.1 (BD Biosciences, Franklin Lake, NJ) and plotted for each test antibody using GraphPad Prism Version 9 (GraphPad Software, San Diego, CA).
# [2] = Thermal stability by differential scanning calorimetry (DSC); type: physicochemical; settings: 0.4 mg/mL in PBS, scan 20° C. to 100° C. at 60° C./hr
# Protocol: The thermal stability of the humanized antibody variants was assessed by differential scanning calorimetry (DSC) as described below.
# 400 μL of purified samples primarily at concentrations of 0.4 mg/mL in PBS were used for DSC analysis with a VP-Capillary DSC (Malvern Panalytical Inc., Westborough, MA). At the start of each DSC run, 5 buffer blank injections were performed to stabilize the baseline, and a buffer injection was placed before each sample injection for referencing. Each sample was scanned from 20° C. to 100° C. at a 60° C./hr rate, with low feedback, 8 sec filter, 3 min pre-scan thermostat, and 70 psi nitrogen pressure. The resulting thermograms were referenced and analyzed using Origin 7 software (OriginLab Corporation, Northampton, MA) to determine melting temperature (Tm) as an indicator of thermal stability.
Molecule,Bmax (MFI) [1],Curve Hill Slope (h) [1],Fab Tm [2] [°C]
"v29451: humanized anti-NaPi2b IgG1/kappa antibody H2L3; VH SEQ ID NO:25, VL SEQ ID NO:30 (antibody, V domains shown, v29451, v29455, v29459 VH (H2); v29449, v29450, v29451, v29452 VL (L3)) VH: QVQLVQSGAEVKKPGASVKVSCKASGFTFTSYNVHWVRQAPGQGLEWIAAISPGNGDLSYAQKFQGRVTMTVDTSTSTVYMELSSLRSEDTAVYYCARGRTGMGAVDYWGQGTLVTVSS VL: DVQMTQSPSSLSASVGDRVTITCRASQDVYSYLNWYQQKPGKAVKLLIYYTSRLQSGVPSRFSGSGSGTDYTLTISSLQPEDIATYYCQQYNIFPWTFGQGTKLEIK","46,170 MFI",1.1,83.0
"v29453: humanized anti-NaPi2b IgG1/kappa antibody H4L2; VH SEQ ID NO:27, VL SEQ ID NO:29 (antibody, V domains shown, v29449, v29453, v29457 VH (H4); v29453, v29454, v29455, v29456 VL (L2)) VH: QVQLVQSGAEVKKPGASVKMSCKASGFTFTSYNVHWVRQAPGQGLEWIAAISPGNGDLSYAQKFQGRATLTVDRSTSTAYMELSSLRSEDTAVYYCARGRTGMGAVDYWGQGTLVTVSS VL: DVQMTQSPSSLSASVGDRVTITCRASQDVYSYLNWYQQKPGKAVKLLIYYTSRLQSGVPSRFSGSGSGTDYTLTISSLQPEDFATYYCQQYNIFPWTFGQGTKLEIK","44,480 MFI",1.2,78.9
"v29454: humanized anti-NaPi2b IgG1/kappa antibody H3L2; VH SEQ ID NO:26, VL SEQ ID NO:29 (antibody, V domains shown, v29450, v29454, v29458 VH (H3); v29453, v29454, v29455, v29456 VL (L2)) VH: QVQLVQSGAEVKKPGASVKMSCKASGFTFTSYNVHWVRQAPGQGLEWIAAISPGNGDLSYAQKFQGRATLTVDTSTSTAYMELSSLRSEDTAVYYCARGRTGMGAVDYWGQGTLVTVSS VL: DVQMTQSPSSLSASVGDRVTITCRASQDVYSYLNWYQQKPGKAVKLLIYYTSRLQSGVPSRFSGSGSGTDYTLTISSLQPEDFATYYCQQYNIFPWTFGQGTKLEIK","42,278 MFI",1.0,79.7
"v29449: humanized anti-NaPi2b IgG1/kappa antibody H4L3; VH SEQ ID NO:27, VL SEQ ID NO:30 (antibody, V domains shown, v29449, v29453, v29457 VH (H4); v29449, v29450, v29451, v29452 VL (L3)) VH: QVQLVQSGAEVKKPGASVKMSCKASGFTFTSYNVHWVRQAPGQGLEWIAAISPGNGDLSYAQKFQGRATLTVDRSTSTAYMELSSLRSEDTAVYYCARGRTGMGAVDYWGQGTLVTVSS VL: DVQMTQSPSSLSASVGDRVTITCRASQDVYSYLNWYQQKPGKAVKLLIYYTSRLQSGVPSRFSGSGSGTDYTLTISSLQPEDIATYYCQQYNIFPWTFGQGTKLEIK","44,460 MFI",1.3,80.0

# More lines, main results first:
Bmax (MFI) [1],Curve Hill Slope (h) [1],Molecule,Fab Tm [2] [°C]
"40,071 MFI",1.2,"v29460: humanized anti-NaPi2b IgG1/kappa antibody H1L1; VH SEQ ID NO:24, VL SEQ ID NO:28 (antibody, V domains shown, v29452, v29456, v29460 VH (H1); v29457, v29458, v29459, v29460 VL (L1)) VH: QVQLVQSGAEVKKPGASVKVSCKASGFTFTSYNVHWVRQAPGQGLEWMGAISPGNGDLSYAQKFQGRVTMTRDTSTSTVYMELSSLRSEDTAVYYCARGRTGMGAVDYWGQGTLVTVSS VL: DIQMTQSPSSLSASVGDRVTITCRASQDVYSYLNWYQQKPGKAPKLLIYYTSRLQSGVPSRFSGSGSGTDFTLTISSLQPEDFATYYCQQYNIFPWTFGQGTKLEIK",80.3
"41,917 MFI",1.1,"v29455: humanized anti-NaPi2b IgG1/kappa antibody H2L2; VH SEQ ID NO:25, VL SEQ ID NO:29 (antibody, V domains shown, v29451, v29455, v29459 VH (H2); v29453, v29454, v29455, v29456 VL (L2)) VH: QVQLVQSGAEVKKPGASVKVSCKASGFTFTSYNVHWVRQAPGQGLEWIAAISPGNGDLSYAQKFQGRVTMTVDTSTSTVYMELSSLRSEDTAVYYCARGRTGMGAVDYWGQGTLVTVSS VL: DVQMTQSPSSLSASVGDRVTITCRASQDVYSYLNWYQQKPGKAVKLLIYYTSRLQSGVPSRFSGSGSGTDYTLTISSLQPEDFATYYCQQYNIFPWTFGQGTKLEIK",81.5
"44,539 MFI",1.0,"v29457: humanized anti-NaPi2b IgG1/kappa antibody H4L1; VH SEQ ID NO:27, VL SEQ ID NO:28 (antibody, V domains shown, v29449, v29453, v29457 VH (H4); v29457, v29458, v29459, v29460 VL (L1)) VH: QVQLVQSGAEVKKPGASVKMSCKASGFTFTSYNVHWVRQAPGQGLEWIAAISPGNGDLSYAQKFQGRATLTVDRSTSTAYMELSSLRSEDTAVYYCARGRTGMGAVDYWGQGTLVTVSS VL: DIQMTQSPSSLSASVGDRVTITCRASQDVYSYLNWYQQKPGKAPKLLIYYTSRLQSGVPSRFSGSGSGTDFTLTISSLQPEDFATYYCQQYNIFPWTFGQGTKLEIK",80.5
"40,941 MFI",1.2,"v29459: humanized anti-NaPi2b IgG1/kappa antibody H2L1; VH SEQ ID NO:25, VL SEQ ID NO:28 (antibody, V domains shown, v29451, v29455, v29459 VH (H2); v29457, v29458, v29459, v29460 VL (L1)) VH: QVQLVQSGAEVKKPGASVKVSCKASGFTFTSYNVHWVRQAPGQGLEWIAAISPGNGDLSYAQKFQGRVTMTVDTSTSTVYMELSSLRSEDTAVYYCARGRTGMGAVDYWGQGTLVTVSS VL: DIQMTQSPSSLSASVGDRVTITCRASQDVYSYLNWYQQKPGKAPKLLIYYTSRLQSGVPSRFSGSGSGTDFTLTISSLQPEDFATYYCQQYNIFPWTFGQGTKLEIK",83.1
"40,793 MFI",1.1,"v29458: humanized anti-NaPi2b IgG1/kappa antibody H3L1; VH SEQ ID NO:26, VL SEQ ID NO:28 (antibody, V domains shown, v29450, v29454, v29458 VH (H3); v29457, v29458, v29459, v29460 VL (L1)) VH: QVQLVQSGAEVKKPGASVKMSCKASGFTFTSYNVHWVRQAPGQGLEWIAAISPGNGDLSYAQKFQGRATLTVDTSTSTAYMELSSLRSEDTAVYYCARGRTGMGAVDYWGQGTLVTVSS VL: DIQMTQSPSSLSASVGDRVTITCRASQDVYSYLNWYQQKPGKAPKLLIYYTSRLQSGVPSRFSGSGSGTDFTLTISSLQPEDFATYYCQQYNIFPWTFGQGTKLEIK",81.6

# Source: US20250277030A1, “ANTI-NAPI2B ANTIBODIES AND METHODS OF USE” (Zymeworks BC Inc., priority 2022, published 2025)
